45 molecules from patent US20100189760A1 can be followed below.

B1: clone Co-22 peptide (peptide)
peptide: VWCGMFGKRRCVT
B2: clone Co-20 peptide (peptide)
peptide: RLCCWKTQYFCEI
B3: clone 7C-7 peptide (peptide)
peptide: LECTERGDFNCFV
B4: clone 15-52 peptide (peptide)
peptide: ESGLKVMCMKYYCMA
B5: clone 15-16 peptide (peptide)
peptide: SDWSVLLSCERWYCI
B6: clone Co-23 peptide (peptide)
peptide: LVCNRQNPWVCYI
B7: clone Co-17 peptide (peptide)
peptide: WECAEESKFWCVF
B8: clone 7C-6 peptide (peptide)
peptide: GECFYYVMNTCVW
B9: clone 7C-2 peptide (peptide)
peptide: ESCWYQIMYKCAN
B10: clone 7C-20 peptide (peptide)
peptide: WVCIWERFKSCNE
B11: clone 7C-1 peptide (peptide)
peptide: WYCFRENKYVCVM
B12: clone 7C-5 peptide (peptide)
peptide: IWCGSRFGCWCKP
B13: clone 7C-8 peptide (peptide)
peptide: WLCLDKNCMACVW
B14: clone 7C-22 peptide (peptide)
peptide: WMCSGVQPNACVW
B15: clone Co-5 peptide (peptide)
peptide: WDCGKKNAWMCIW
B16: clone Co-13 peptide (peptide)
peptide: STCSWVSSYVCIM
B17: clone Co-15 peptide (peptide)
peptide: WVCNDLIHHFCVW
B18: clone 15-59 peptide (peptide)
peptide: DLCTYGHLWLGNGRP
B19: clone Co-11 peptide (peptide)
peptide: LECPGESKYYCIY
B20: clone 15-2 peptide (peptide)
peptide: DHKFGLVMLNKYAYAG
B21: clone Co-21 peptide (peptide)
peptide: MYCERDSKYWCIH
B22: clone 7C-12 peptide (peptide)
peptide: FWCIRGEYWVCDR
B23: clone Co-10 peptide (peptide)
peptide: WRCLGDGYHACVR
B24: clone Co-19 peptide (peptide)
peptide: WQCGRFWCIHCLW
B25: clone 15-32 peptide (peptide)
peptide: RRELVRMTDWVWVSG
B26: clone 7C-21 peptide (peptide)
peptide: WNCIKGSSWACVW
B27: clone Co-1 peptide (peptide)
peptide: SLCAAYNRWACIW
B28: clone 7C-11 peptide (peptide)
peptide: LCCESYICALCHY
B29: clone 7C-15 peptide (peptide)
peptide: QCCQLRGDAVCNC
B30: clone Co-12 peptide (peptide)
peptide: WVCLWRHRGDCSI
B31: clone 7C-14 peptide (peptide)
peptide: LNCAMYNACIW
B32: clone 7C-3 peptide (peptide)
peptide: WFCLLGRSAYCVR
B33: clone 15-50 peptide (peptide)
peptide: GFVLVWSYTCRCWGK
B34: clone Co-16 peptide (peptide)
peptide: QGCAFVTYWACIF
B35: clone 15-6 peptide (peptide)
peptide: LEDAMGWALSWGHIW
B36: clone 7C-4 peptide (peptide)
peptide: YMCMSRGDATCDV
B37: clone 7C-17 peptide (peptide)
peptide: WLCKGSNKYMCEW
B38: clone Co-18 peptide (peptide)
peptide: WWCKKPEYWYCIW
B39: clone 7C-24 peptide (peptide)
peptide: WWCDMRGDSRCSG
B40: clone Co-8 peptide (peptide)
peptide: WTWESAFAGRWEVGD
B41: clone Co-2 peptide (peptide)
peptide: WSCPKVNQYACFW
B42: clone 7C-19 peptide (peptide)
peptide: WVCNKLGVYACEY
B43: clone 7C-9 peptide (peptide)
peptide: KLCCFDKGYYCMR
B44: clone Co-3 peptide (peptide)
peptide: GGCRWYAKWVCVW
B45: clone Co-9 peptide (peptide)
peptide: SKCWGWTPYYCVA

In this experiment the target is neural stem cell surface (cell surface molecule(s) of NSCs, not identified) (rat (adult hippocampus, stated in Example 1)). In words: flow cytometry, GFP bacterial clone displaying the peptide on NSCs.
In turn, B1 yielded a % NSCs with Bacteria of 75.6%.

For B2, the % NSCs with Bacteria was 70.9%. With B3 the figure was 47.8%; with B4, 63.3%; with B5, 63.9%. With B6 the figure was 71.1%.

B7 displayed a % NSCs with Bacteria of 72.1%. The figure for B8 is 61.8%; for B9 it is 55.2%; for B10 it is 65.7%. As for B11, the % NSCs with Bacteria worked out at 75.2%. The figure for B12 is 65.6%; for B13 it is 68.8%.

The molecule B14 showed a % NSCs with Bacteria of 46.9%. The figure for B15 is 67.4%; for B16 it is 64.8%.

For the molecule B17, the % NSCs with Bacteria is 70.9%. With B18 the figure was 22.5%; with B19, 72.7%; with B20, 75.9%.

B21 yielded a % NSCs with Bacteria of 70.9%. With B22 the figure was 64.5%. The figure for B23 is 72.7%; for B24 it is 50.6%. The figure for B25 is 70.4%; for B26 it is 75.5%; for B27 it is 73.8%. On to B28, for which the % NSCs with Bacteria turned out to be 37.7%.

As to B29, the % NSCs with Bacteria came out at 54%. The molecule B30 gave a % NSCs with Bacteria of 74.3%. With B31 the figure was 54.5%; with B32, 71.9%; with B33, 64.9%. With B34, the % NSCs with Bacteria was 71.9%.

Molecule B35 came in with a % NSCs with Bacteria of 70.2%. As to B36, the % NSCs with Bacteria was found to be 62%.

For B37, the % NSCs with Bacteria worked out at 67.8%. The figure for B38 is 71.3%; for B39 it is 61.7%. In turn, B40 came in with a % NSCs with Bacteria of 61.7%. With B41 the figure was 74.8%; with B42, 20.5%; with B43, 71.3%. With B44 the figure was 75.7%. As for B45, the % NSCs with Bacteria worked out at 75.7%.
